# Laboratory results published in US20040038249A1, “Inducible expression systems employing PPAR transcriptional activators” (priority 2002, published 2004).
# Where a chain is given by its changes, count along the chain named.
# B1: GSG: human PPARγ2 with GSCKG substitutions in the P-box (SEQ ID NO: 7) (protein)
# chain: MGETLGDSPIDPESDSFTDTLSANISQEMTMVDTEMPFWPTNFGISSVDLSVMEDHSHSFDIKPFTTVDFSSISTPHYEDIPFTRTDPVVADYKYDLKLQEYQSAIKVEPASPPYYSEKTQLYNKPHEEPSNSLMAIECRVCGDKASGFHYGVHACGSCKGFFRRTIRLKLIYDRCDLNCRIHKKSRNKCQYCRFQKCLAVGMSHNAIRFGRMPQAEKEKLLAEISSDIDQLNPESADLRALAKHLYDSYIKSFPLTKAKARAILTGKTTDKSPFVIYDMNSLMMGEDKIKFKHITPLQEQSKEVAIRIFQGCQFRSVEAVQEITEYAKSIPGFVNLDLNDQVTLLKYGVHEIIYTMLASLMNKDGVLISEGQGFMTREFLKSLRKPFGDFMEPKFEFAVKFNALELDDSDLAIFIAVIILSGDRPGLLNVKPIEDIQDNLLQALELQLKLNHPESSQLFAKLLQKMTDLRQIVTEHVQLLQVIKKTETDMSLHPLLQEIYKDLY
# modifications: PPAR gamma 2 recombinant polypeptide comprising GSCKG in Zinc finger domain
# B2: GSV: human PPARγ2 with GSCKV substitutions in the P-box of the Zinc finger domain (SEQ ID NO: 8) (protein)
# chain: B1 chain with G161V
# modifications: PPAR gamma 2 recombinant polypeptide comprising GSCKV in Zinc finger domain
# Assays:
# [1] = form not soluble in water, doses between 5 and 50 mg/kg, for example 30 mg/kg; cited from earlier work
# [2] = tested on: PPAR Response Elements (PPREs) of wt origin or mutated response sequence (CYP4A6m1); experiment: Luciferase reporter cotransfection with PPAR polypeptide and response element plasmids; assay type: cell-based, murine; settings: for luciferase activity from response elements: C2C12 murine myoblasts, untreated or treated with BRL49653 PPARγ ligand, panel of wt and mutated response elements
# From the text: FIG. 2: Comparison of PPAR polypeptides derived from human PPARγ2 receptor. C2C12 murine myoblasts were cotransfected with a mixture of 3 different plasmids: (i) a plasmid expressing the wt or a mutated hPPARγ2; (ii) a plasmid in which the luc+ gene expression is driven by an inducible target sequence made of multiple PPAR Response Elements (PPREs) of wt origin (CYP4A6, CYP4A1 and HMG) or mutated response sequence (CYP4A6m1=SEQ ID No.: 26, CYP4A6m2=control with sequence 5′ GAACT AGGGCA A AGAACA 3′ (SEQ ID No.: 41), CYP4 μm=SEQ ID No.: 22, and HMGm=SEQ ID No.: 34); and (iii) a plasmid expressing the Renilla luciferase gene as an internal control of transfection efficiency. Measurement of luciferase activity for untreated cells (white bars) or cells treated with the BRL49653 PPARγ ligand (grey bars) is shown for each response element (left Y-axis). The relative induction level (x fold induction) resulting from ligand treatment is also shown (dots and right Y-axis)). Nomenclature for the PPAR amino acid sequences used refers to the first, second, and fifth (bolded) amino acid in the P-box of the Zinc finger domain, where wild type is EGCKG (see box in FIG. 1, panel B).
# FIG. 3: DNA-binding specificity of the GSV mutant. C2C12 murine myoblasts were cotransfected with a mixture of 3 different plasmids: (i) a plasmid expressing the wt EGG or the GSV mutated hPPARγ2; (ii) a plasmid in which the luc+ gene expression is driven by an inducible target sequence made of multiple wt PPREs (apoAII, BIF, PPREcon, CYP4A1, CYP4A6, FABP, HMG and MEP cloned in sense (-S) or anti-sense (-AS) orientation) or the mutated response element (noted as “m” sequences in FIG. 6, such as CYP4A6m1=SEQ ID No.: 26); and (iii) a plasmid expressing the Renilla luciferase gene as an internal control of transfection efficiency. Expression levels for untreated cells (white) or cells treated with the BRL49653 PPARγ ligand (grey) are shown in left Y-axis and the relative induction (x fold induction) due to ligand treatment is shown in right Y-axis (dots).
# One skilled in the art is familiar with protocols for transfecting plasmids into cell or infecting cells with virus. As an example, murine myoblasts (C2C12; ATCC: CRL1772) and human HEK293 (ATCC: CRL1573) cells are seeded in 24-well plates (7.5×10^4 cells per well) and grown for 24 h in DMEM supplemented with 10% FCS. Cells are washed in DMEM without serum and transfected in triplicate by adding to the cells 0.5 ml of OptiMEM mixed with various quantities of reporter gene (AP or luc) encoding plasmid, supplemented to 500 ng with a carrier plasmid and LipofectAMINE (2 μl for C2C12, 3 μl for HEK293). Five hours later, the medium containing the DNA and the LipofectAMINE is replaced by 1 ml of DMEM supplemented with FCS (2% for C2C12, 10% for HEK293). […]
Molecule,plasma concentration [1],luciferase activity from response elements [2],"relative induction level resulting from ligand treatment ([2]; C2C12, BRL49653 treatment, CYP4A6m1 response element)",luciferase activity from response elements ([2]; listed as PPARγ2 (GSV))
"CN(CCOc1ccc(CC2SC(=O)NC2=O)cc1)c1ccccn1 (centres unmarked) [BRL49653, rosiglitazone]",about 15 μg/ml,–,–,–
B1,–,particularly strong and selective,–,–
B2,–,highly selective,highest induction levels,specific for the CYP4A6m1
